Measured values from paper PMC8805157 (2021).

B1: GFP-Atg11 (wild type) [S. cerevisiae] / PA-Atg19 [S. cerevisiae] (parent complex)
chain 1: MADADEYSTAPTQQEITPLQTTATIINAISGECITTNVDFFVSLDKFKQFIARKWKIPPDQLLILLPYGNKLKPSMFKELLINRSFTLNDFYVYDRRLFSLVSKPTPTNLLTSKDSNPMNSPNSNDLTETLEYLIKNSHISQYQGSDTIMIKPMPSPLEDADVDLSRLNYHSVTSLLTTNLGWLSALEIDVHYFKSLIPDIIAHIKRIFDGLTVCSQYLKLYCFDVESLYNSNVQFLNQLVDNGMTSKWEKCFNDTLSKLTALEGDSLQKFINIESLLENEKSVKILNHSINGKLNKIKREIDENASFRDIITVNIDRLRQMFTPNESKFELEDQMAESFEVLVSEMRTRSRNVLDKEEEEFNSQEFLKSMNVMLEKDKKESVKTLFTISQALYSQIGELIDLKKSLQKHAVAILGNIAFTQMEILGIKRLLLNECNKDLELYKKYEVEFAQVEDLPLIYGLYLIEKYRRLSWFQQILSFISNFNQDLELFKQNELRTRNKWVKNFGSIATVFCEDLLSSSDFKRLNEYHSHTSPPNEDEEDENENSIANYRQDLVKVSQAIDNYMTQIKETDVSEPIIDLLSKTLFETKRFHIIYSNFKNNNNNSSNGNSISPEGSIALKSDDVVKGYKTRIKKLESLLHEFQYSDIGHWPQGVLNTHLKPFRGSATSINKKKFLGASVLLEPANISEVNIDSVSQANNHQIQELESNVDDLLHQLQLLKEENNRKSMQISEMGKKISDLEVEKTAYRETLTNLNQELARLTNEEQSHRTEIFTLNASFKKQLNDIISQDNEKIEKLTGDYDDVSKSRERLQMDLDESNKKHEQEVNLLKADIERLGKQIVTSEKSYAETNSSSMEKGEKFETIPLAEDPGRENQISAYTQTLQDRIFDIISTNIFILENIGLLLTFDNNNNIQIRRVKGLKKGTAQSNILDESTQMLDAHDNSLIKSPVFQKLKDEYELIKSVANGSEKDTQQSIFLGNITQLYDNKLYEVAVIRRFKDIETLAKKLTKENKIKRTLLERFQREKVTLRNFQIGDLALFLPTRENVNSVGSMSSSTSSLSSSFSSVDLSTPPPLDAMSIQSSPSVIHSNVINQASISGRDKNKLMRPWAAFTAFEESTRYFLKDEKGLTKGKEWFVGRIVTLEHFVADSPSNNPFRLPKGSVWFQVTAVVVSYQGV
chain 2: MNNSKTNQQMNTSMGYPLTVYDECNKFQLIVPTLDANIMLWCIGQLSLLNDSNGCKHLFWQPNDKSNVRILLNNYDYGHLFKYLQCQRKCSVYIGEGTLKKYNLTISTSFDNFLDLTPSEEKESLCREDAHEDPVSPKAGSEEEISPNSTSNVVVSRECLDNFMKQLLKLEESLNKLELEQKVTNKEPNHRISGTIDIPEDRSELVNFFTELKTVKQLEDVFQRYHDYERLSQECDSKTEIASDHSKKETKIEVEPPNERSLQITMNQRDNSLYFQLFNNTNSVLAGNCKLKFTDAGDKPTTQIIDMGPHEIGIKEYKEYRYFPYALDLEAGSTIEIENQYGEVIFLGKYGSSPMINLRPPSRLSAESLQASQEPFYSFQIDTLPELDDSSIISTSISLSYDGDDNEKALTWEEL
B2: GFP-Atg11 (wild type) [S. cerevisiae] / Atg9-PA [S. cerevisiae] (parent complex)
chain 1: B1 chain 1
chain 2: MERDEYQLPNSHGKNTFLSRIFGLQSDEVNPSLNSQEMSNFPLPDIERGSSLLHSTNDSREDVDENDLRVPESDQGTSTEEEDEVDEEQVQAYAPQISDGLDGDHQLNSVTSKENVLETEKSNLERLVEGSTDDSVPKVGQLSSEEEEDNEFINNDGFDDDTPLFQKSKIHEFSSKKSNTIEDGKRPLFFRHILQNNRPQRDTQKLFTSSNAIHHDKDKSANNGPRNINGNQKHGTKYFGSATQPRFTGSPLNNTNRFTKLFPLRKPNLLSNISVLNNTPEDRINTLSVKERALWKWANVENLDIFLQDVYNYYLGNGFYCIILEKILNICTLLFVVFVSTYMGHCVDYSKLPTSHRVSDIIIDKCYSNSITGFTKFFLWMFYFFVILKIVQLYFDVQKLSELQNFYKYLLNISDDELQTLPWQNVIQQLMYLKDQNAMTANVVEVKAKNRIDAHDVANRIMRRENYLIALYNSDILNLSLPIPLFRTNVLTKTLEWNINLCVMGFVFNESGFIKQSILKPSQREFTREELQKRFMLAGFLNIILAPFLVTYFVLLYFFRYFNEYKTSPGSIGARQYTPIAEWKFREYNELYHIFKKRISLSTTLANKYVDQFPKEKTNLFLKFVSFICGSFVAILAFLTVFDPENFLNFEITSDRSVIFYITILGAIWSVSRNTITQEYHVFDPEETLKELYEYTHYLPKEWEGRYHKEEIKLEFCKLYNLRIVILLRELTSLMITPFVLWFSLPSSAGRIVDFFRENSEYVDGLGYVCKYAMFNMKNIDGEDTHSMDEDSLTKKIAVNGSHTLNSKRRSKFTAEDHSDKDLANNKMLQSYVYFMDDYSNSENLTGKYQLPAKKGYPNNEGDSFLNNKYSWRKQFQPGQKPELFRIGKHALGPGHNISPAIYSTRNPGKNWDNNNNGDDIKNGTNNATAKNDDNNGNNDHEYVLTESFLDSGAFPNHDVIDHNKMLNSNYNGNGILNKGGVLGLVKEYYKKSDVGR
B3: GFP-Atg11 (wild type) [S. cerevisiae] / Atg1-PA [S. cerevisiae] (parent complex)
chain 1: B1 chain 1
chain 2: MGDIKNKDHTTSVNHNLMASAGNYTAEKEIGKGSFATVYRGHLTSDKSQHVAIKEVSRAKLKNKKLLENLEIEIAILKKIKHPHIVGLIDCERTSTDFYLIMEYCALGDLTFLLKRRKELMENHPLLRTVFEKYPPPSENHNGLHRAFVLSYLQQLASALKFLRSKNLVHRDIKPQNLLLSTPLIGYHDSKSFHELGFVGIYNLPILKIADFGFARFLPNTSLAETLCGSPLYMAPEILNYQKYNAKADLWSVGTVVFEMCCGTPPFRASNHLELFKKIKRANDVITFPSYCNIEPELKELICSLLTFDPAQRIGFEEFFANKVVNEDLSSYELEDDLPELESKSKGIVESNMFVSEYLSKQPKSPNSNLAGHQSMADNPAELSDALKNSNILTAPAVKTDHTQAVDKKASNNKYHNSLVSDRSFEREYVVVEKKSVEVNSLADEVAQAGFNPNPIKHPTSTQNQNVLLNEQFSPNNQQYFQNQGENPRLLRATSSSSGGSDGSRRPSLVDRRLSISSLNPSNALSRALGIASTRLFGGANQQQQQQQITSSPPYSQTLLNSQLFHELTENIILRIDHLQHPETLKLDNTNIVSILESLAAKAFVVYSYAEVKFSQIVPLSTTLKGMANFENRRSMDSNAIAEEQDSDDAEEEDETLKKYKEDCLSTKTFGKGRTLSATSQLSATFNKLPRSEMILLCNEAIVLYMKALSILSKSMQVTSNWWYESQEKSCSLRVNVLVQWLREKFNECLEKADFLRLKINDLRFKHASEVAENQTLEEKGSSEEPVYLEKLLYDRALEISKMAAHMELKGENLYNCELAYATSLWMLETSLDDDDFTNAYGDYPFKTNIHLKSNDVEDKEKYHSVLDENDRIIIRKYIDSIANRLKILRQKMNHQN

Variants of: B1
Experiment: CoIP (quantified western blot); proteins overexpressed with a CUP1 promoter in an atg11∆ strain; five independent replicates; read off a plot
Work on chain 1 Y565E yielded a ratio to parent of roughly 0.88.

Variants of: B2
Experiment: CoIP (quantified western blot); proteins overexpressed with a CUP1 promoter in an atg11∆ strain; ≥ 3 independent replicates; read off a plot
chain 1 Y565E gave a ratio to parent of roughly -0.05.

Variants of: B3
Experiment: CoIP (quantified western blot); endogenously driven Atg1-PA; overexpressed GFP-Atg11; four independent replicates; read off a plot
Variant chain 1 Y565E has a ratio to parent of roughly 0.13.
